Residue numbers refer to the chain shown, from its start. Like-named read-outs stand apart in the source and are kept apart here.

Data set [1] has as its target T1, Lactobacillus delbrueckii ssp. Bulgaricus R-2-hydroxy acid dehydrogenase (LB2HADH) variant H206Q (Q206 mutant, Histidine 206 replaced by glutamine) (Lactobacillus delbrueckii, UniProt Q48534, H207Q).
T1 construct: no tag mentioned
T1 sequence (Q48534 1-333 H207Q): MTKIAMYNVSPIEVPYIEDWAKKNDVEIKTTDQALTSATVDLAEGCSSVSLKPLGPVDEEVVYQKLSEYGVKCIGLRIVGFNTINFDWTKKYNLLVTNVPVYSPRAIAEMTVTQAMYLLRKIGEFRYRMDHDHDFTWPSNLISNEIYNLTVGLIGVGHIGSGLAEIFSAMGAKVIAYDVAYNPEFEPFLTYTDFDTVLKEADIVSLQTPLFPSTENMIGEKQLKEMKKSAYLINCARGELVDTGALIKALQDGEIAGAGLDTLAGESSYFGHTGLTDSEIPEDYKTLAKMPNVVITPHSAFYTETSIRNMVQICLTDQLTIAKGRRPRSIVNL
The experiment in a line: Steady-state kinetics of 2-keto acid reduction, followed by NADH oxidation. Type of data set: biochemical. On the procedure: Glutamine 206 variant of LB2HADH:
A site-directed mutant was prepared from pGIN113 (Bernard, N., et al, Eur. J. Biochem., (1994), 224, 439-446) using a mutagenic oligonucleotide:
and the Promega "altered sites mutagenesis" kit. The enzyme was purified as for the wild type.
The vQ206 /vwt was 45 at 70 mM substrate.
The results are illustrated in accompanying FIG. 2, the Vmax values for H206Q being divided by 10 to obtain a clearer representation of comparative performance. […] (The steady-state kinetic constants of LB2HADH and H206Q in Table 6 below were obtained using standard stopped flow measurements.)

Data set [2] concerns the target T2, Lactobacillus delbrueckii ssp. Bulgaricus R-2-hydroxy acid dehydrogenase (LB2HADH), wild type (H206), SEQ ID NO:1 (Lactobacillus delbrueckii, UniProt Q48534).
T2 construct: no tag mentioned
T2 sequence (Q48534 1-333): T1 sequence (Q48534 1-333 H207Q) with Q207H
The data set is described as above. The class given is biochemical. An excerpt:
Since 1950, a number of workers have investigated the reduction of 2-oxo carboxylic acids catalysed by R-hydroxy acid dehydrogenases. For these studies, enzymes isolated from a variety of bacte rial sources have bee n employed. For a given 2-oxo acid, a given enzyme activity may be examined by UV spectroscopy and quantified with the Michaelis constant, Km, and the catalytic turnover, kcat.
The two compartment model for the binding pocket of the enzyme is illustrated in accompanying FIG. 1.
The substrate specificity of the purified enzyme was established by following the kinetics of reduction of a variety of 2-ketoacids (see Table 2 above).
(The steady-state kinetic constants of LB2HADH and H206Q in Table 6 below were obtained using standard stopped flow measurements.)

Substrate in data set [3]: CC(C)C(=O)C(=O)O
As to the kind of experiment: purified protein, by the assay type. Type of data set: biochemical, Lactobacillus delbrueckii ssp. Bulgaricus. Conditions: other: pH 7.5; [NADH] = 0.2 mM; pH 7.5.

Substrate in data set [4]: O=C(O)C(=O)CCC1CCCC1
As to the kind of experiment: purified protein, by the assay type. The class given is biochemical, Lactobacillus delbrueckii ssp. Bulgaricus.

Substrate in data set [5]: CC(C)CC(=O)C(=O)O
As to the kind of experiment: purified protein, by the assay type. The class given is biochemical, Lactobacillus delbrueckii ssp. Bulgaricus.

Substrate in data set [6]: CCCC(=O)C(=O)O
The experiment in a line: purified protein, by the assay type. Conditions: other: pH 7.5; [NADH] = 0.2 mM; pH 7.5. Type of data set: biochemical, Lactobacillus delbrueckii ssp. Bulgaricus.

Substrate in data set [7]: CCC(=O)C(=O)O
The experiment in a line: purified protein, by the assay type. The class given is biochemical, Lactobacillus delbrueckii ssp. Bulgaricus. Conditions: other: pH 7.5; [NADH] = 0.2 mM; pH 7.5.

Substrate in data set [8]: CCCCC(=O)C(=O)O
As to the kind of experiment: purified protein, by the assay type. Type of data set: biochemical, Lactobacillus delbrueckii ssp. Bulgaricus. Conditions: other: pH 7.5; [NADH] = 0.2 mM; pH 7.5.

Substrate in data set [9]: CC(=O)C(=O)O
The experiment in a line: purified protein, by the assay type. Conditions: other: pH 7.5; [NADH] = 0.2 mM; pH 7.5. The class given is biochemical, Lactobacillus delbrueckii ssp. Bulgaricus.

Substrate in data set [10]: O=C(O)C(=O)CCc1ccccc1
The experiment in a line: purified protein, by the assay type. Conditions: other: pH 7.5; [NADH] = 0.2 mM; pH 7.5. The class given is biochemical, Lactobacillus delbrueckii ssp. Bulgaricus.

Substrate in data set [11]: NC(=O)C1=CN([C@@H]2O[C@H](COP(=O)(O)OP(=O)(O)OC[C@H]3O[C@@H](n4cnc5c(N)ncnc54)[C@H](O)[C@@H]3O)[C@@H](O)[C@H]2O)C=CC1
As to the kind of experiment: purified protein, by the assay type. Conditions: other: pH 5.5, stopped flow.

[12] abbreviates: other: pH 7.5, [NADH] = 0.2 mM, pH 7.5.
Where [13] appears, read: other: pH 5.0, stopped flow, pH 5.0.
Setting [14] is: other: pH 5.5, stopped flow, pH 5.5.
The mark [15] stands for this setting: other: pH 6.0, stopped flow, pH 6.0.
Where [16] appears, read: other: pH 6.5, stopped flow, pH 6.5.

Consider `O=C(O)C(=O)CCC1CCCC1` [cyclopentylmethyl, 4-cyclopentyl-2-keto-butanoate], for which the Ki in data set [1] (read-out: Ki (substrate), substrate inhibition, Q206 mutant) was > 100 mM; in data set [2] (substrate inhibition, wild type, read-out: Ki (substrate)), 2 mM.

For the molecule `CC(=O)C(=O)O` [pyruvate], the “Vm (VM (app): turnover at optimal substrate concentration)” value in [2] (pH 7.5, [NADH] = 0.2 mM) worked out at 48 s⁻¹.

As to `O=C(O)C(=O)CCc1ccccc1` [benzylpyruvate, 2-oxo-4-phenyl butanoate], the “Vm (VM (app): turnover at optimal substrate concentration)” value in [2] (pH 7.5, [NADH] = 0.2 mM) turned out to be 51 s⁻¹.

Turning to `O=C(O)C(=O)Cc1ccccc1` [phenylpyruvate], the Km in data set [2] (pH 7.5, [NADH] = 0.2 mM, read-out: Km (KM (app): substrate concentration for 0.5 Vmax)) was 31 µM.

As to `CC(C)CC(=O)C(=O)O` [ketoisocaproate, 4-methyl-2-oxo-pentanoic acid], the Ki in data set [1] (read-out: Ki KIC, pH 5.0, stopped flow) worked out at 3.5 mM; in data set [1] (read-out: Ki KIC, pH 5.5, stopped flow) it was 8.1 mM; in data set [1] (read-out: Ki KIC, pH 6.0, stopped flow), 5.8 mM; in data set [1] (read-out: Ki KIC, pH 6.5, stopped flow), 7.6 mM; in [2] (pH 5.5, stopped flow, read-out: Ki KIC) it was 0.24 mM; in data set [2] (pH 6.0, stopped flow, read-out: Ki KIC) it was 0.31 mM. For the same molecule, the Vm/KM in data set [2] (pH 6) was 5e+06 M⁻¹ s⁻¹. Moreover, the “Vm (VM (app): turnover at optimal substrate concentration)” value in [2] (pH 7.5, [NADH] = 0.2 mM) is 20 s⁻¹.

B1: Lactobacillus delbrueckii ssp. Bulgaricus R-2-hydroxy acid dehydrogenase (LB2HADH), wild type (H206), SEQ ID NO:1 (Lactobacillus delbrueckii) (protein)
chain: T1 sequence (Q48534 1-333 H207Q) with Q207H
notes: no tag mentioned
One may read the kcat as the maximal rate divided by the concentration of active sites. What is called kcat/Km is the second-order rate constant that governs catalysis at low substrate concentration. B1: the Km is 20000 µM in [3]; 8 µM in data set [4] (other: 0.2 mM NADH, wild type); 10 µM in data set [4] (setting [12]); 25 µM in data set [5] (setting [13]); 30 µM in [5] (setting [14]); 50 µM in [5] (setting [15]). In addition, the Km in data set [5] (setting [16]) amounted to 15 µM; in data set [5] (setting [12]), 22 µM; in [6], 57 µM; in data set [7] it was 1700 µM; in [8], 20 µM; in data set [9], 20000 µM. Besides, the values for the Km in data set [10] and in [11] were 36 µM and 15 µM, respectively. Also, the kcat in [4] (other: 0.2 mM NADH, wild type) was 25 s⁻¹; in data set [5] (setting [13]), 170 s⁻¹; in [5] (setting [14]) it was 240 s⁻¹; in data set [5] (setting [15]), 245 s⁻¹; in data set [5] (setting [16]) it was 75 s⁻¹. In addition, the catalytic efficiency (kcat/Km) in data set [4] (setting [12]) is 2.8e+06 M⁻¹ s⁻¹; in [5] (setting [13]), 7e+06 M⁻¹ s⁻¹; in data set [5] (setting [14]), 8e+06 M⁻¹ s⁻¹; in data set [5] (setting [15]), 5e+06 M⁻¹ s⁻¹; in [5] (setting [16]), 5e+06 M⁻¹ s⁻¹; in data set [5] (setting [12]) it was 910000 M⁻¹ s⁻¹. Moreover, the kcat/Km in data set [6] came to 330000 M⁻¹ s⁻¹; in [7], 28000 M⁻¹ s⁻¹; in data set [8] it was 650000 M⁻¹ s⁻¹; in [10], 1.4e+06 M⁻¹ s⁻¹.
